Experimental data from patent publication US20090186040A1 (published 2009).

Biological target: T1, BLyS (B-lymphocyte stimulator) (UniProt Q9Y275 134-285)
T1 construct: Endogenous BLyS in the serum of human SLE patients; The complex with atacicept was detected by sandwich ELISA
Assay: ELISA of atacicept/BLyS complex in serum of dosed SLE patients (subcutaneous, Study 1)
Experimental: Pharmacokinetics were assessed by measuring serum levels of free atacicept (Table 2a), atacicept/BLyS complex (Table 3a), and composite atacicept (defined as free atacicept+atacicept-BLyS complex, Table 4a). Serum levels of each of these were quantified using an enzyme-linked immunosorbant assay. Serum was incubated with a biotin-conjugated mouse mAb specific for atacicept (free or total atacicept detection) (ZymoGenetics, Inc., Seattle, Wash.) or biotin-conjugated goat polyclonal antibodies specific for either BLyS or atacicept (atacicept/BLyS complex detection) (R & D Systems, Minneapolis, Minn.), immobilized on a streptavidin-coated microplate (Adaltis, Montreal, Quebec). […] In all three assays, atacicept serum levels were detected and quantified using standard […] methods, i.e., after washing tetramethylbenzidine (TMB) was added as HRP substrate (Sigma-Aldrich, St. Louis, Mo.). The reaction was halted after 20 minutes using 0.5 M sulfuric acid and the absorbance recorded at 450 nm. […] All samples were measured in triplicate. […] The lower limits of quantification (LLOQ) of the assays were 15.6 ng/mL for free atacicept, 5 U/mL for atacicept-BLyS complex (1 U/mL corresponding to 1.82 ng/mL atacicept-0.44 ng/mL BLyS in a 3:1 molar ratio), and 25 ng/mL for the composite analytes. […]

binding result: binds
B1: atacicept (Fc fusion)
chain: AMRSCPEEQYWDPLLGTCMSCKTICNHQSQRTCAAFCRSLSCRKEQGKFYDHLLRDCISCASICGQHPKQCAYFCENKLRSEPKSSDKTHTCPPCPAPEAEGAPSVFLFPPKPKDTLMISRTPEVTCVVVDVSHEDPEVKFNWYVDGVEVHNAKTKPREEQYNSTYRVVSVLTVLHQDWLNGKEYKCKVSNKALPSSIEKTISKAKGQPREPQVYTLPPSRDELTKNQVSLTCLVKGFYPSDIAVEWESNGQPENNYKTTPPVLDSDGSFFLYSKLTVDKSRWQQGNVFSCSVMHEALHNHYTQKSLSLSPGK
modifications: Fc-linked homodimer in the drug; one chain is given.
notes: also called TACI-Ig; TACI-Fc5
